These results are taken from article PMC4893198.

In one assay the target is OST-NLS-mCherry-NRF2 (UniProt Q16236). In words: pull-down.
Another assay has as its target OST-progerin (human) (UniProt P02545). The assay can be described thus: pull-down.

For “HA-progerin (from UniProt P02545-6 1-614) (natural protein)”, in the assay with OST-NLS-mCherry-NRF2, the interaction relative to WT lamin A amounted to 248%.

B1: FLAG-NLS-NRF2 (natural protein)
chain: MMDLELPPPGLPSQQDMDLIDILWRQDIDLGVSREVFDFSQRRKEYELEKQKKLEKERQEQLQKEQEKAFFAQLQLDEETGEFLPIQPAQHIQSETSGSANYSQVAHIPKSDALYFDDCMQLLAQTFPFVDDNEVSSATFQSLVPDIPGHIESPVFIATNQAQSPETSVAQVAPVDLDGMQQDIEQVWEELLSIPELQCLNIENDKLVETTMVPSPEAKLTEVDNYHFYSSIPSMEKEVGNCSPHFLNAFEDSFSSILSTEDPNQLTVNSLNSDATVNTDFGDEFYSAFIAEPSISNSMPSPATLSHSLSELLNGPIDVSDLSLCKAFNQNHPESTAEFNDSDSGISLNTSPSVASPEHSVESSSYGDTLLGLSDSEVEELDSAPGSVKQNGPKTPVHSSGDMVQPLSPSQGQSTHVHDAQCENTPEKELPVSPGHRKTPFTKDKHSSRLEAHLTRDELRAKALHIPFPVEKIINLPVVDFNEMMSKEQFNEAQLALIRDIRRRGKNKVAAQNCRKRKLENIVELEQDLDHLKDEKEKLLKEKGENDKSLHLLKKQLSTLYLEVFSMLRDEDGKPYSPSEYSLQQTRDGNVFLVPKSKKPDVKKN
The molecule B1 had an NRF2 pulled down relative to OST-lamin A with OST-progerin (human) of 142%.

B2: recombinant HIS6x-NRF2 (natural protein)
chain: MMDLELPPPGLPSQQDMDLIDILWRQDIDLGVSREVFDFSQRRKEYELEKQKKLEKERQEQLQKEQEKAFFAQLQLDEETGEFLPIQPAQHIQSETSGSANYSQVAHIPKSDALYFDDCMQLLAQTFPFVDDNEVSSATFQSLVPDIPGHIESPVFIATNQAQSPETSVAQVAPVDLDGMQQDIEQVWEELLSIPELQCLNIENDKLVETTMVPSPEAKLTEVDNYHFYSSIPSMEKEVGNCSPHFLNAFEDSFSSILSTEDPNQLTVNSLNSDATVNTDFGDEFYSAFIAEPSISNSMPSPATLSHSLSELLNGPIDVSDLSLCKAFNQNHPESTAEFNDSDSGISLNTSPSVASPEHSVESSSYGDTLLGLSDSEVEELDSAPGSVKQNGPKTPVHSSGDMVQPLSPSQGQSTHVHDAQCENTPEKELPVSPGHRKTPFTKDKHSSRLEAHLTRDELRAKALHIPFPVEKIINLPVVDFNEMMSKEQFNEAQLALIRDIRRRGKNKVAAQNCRKRKLENIVELEQDLDHLKDEKEKLLKEKGENDKSLHLLKKQLSTLYLEVFSMLRDEDGKPYSPSEYSLQQTRDGNVFLVPKSKKPDVKKN
With B2, the NRF2 bound relative to OST-lamin A with OST-progerin (human) came to 275%.
